Source: US20230092787A1 (UNIVERSITY OF VIRGINIA PATENT FOUNDATION, published 2023)

Legend:
[1] = biological target: T1, integrin alphav beta3 (αvβ3), human, on tumor cell lines (human, UniProt P06756 31-1048; P05106 27-788); experiment: flow cytometry, PE-LM609 on GBM U87 cells
T1 construct: whole, on cells; Endogenous heterodimer on human DIPG and GBM tumor cell lines; also called integrin αvβ3; ITGAV/ITGB3
Description: (§1) Human T cell analysis of ex vivo expanded CAR T cells, and T cells isolated from mouse blood, brain, and spleen was performed using antibodies against CD3 (HIT3a), CD4 (OKT4), CD8 (SK1), CD45RO (UCH1.1), CD45RA (H100), CCR7 (G043H7), CD127 (A019D5), PD-1 (EH12.2H7), LAG-3 (11C3C65), TIM-3 (F38-2E2), CD45 (2D1), and TCF-1 (7F11A10) (from BioLegend, San Diego, Calif., United States of America). Expression of integrin αᵥβ₃ CAR was detected using biotinylated protein L (Thermo Fisher Scientific, Waltham, Mass., United States of America) followed by streptavidin-conjugated PE (BioLegend, San Diego, Calif., United States of America). […] Sample data was acquired on a NovoCyte 3005 Flow Cytometer (ACEA Biosciences Inc., San Diego, Calif., United States of America) and analyzed using data analysis software sold under the tradename FLOWJO™ v10 (FlowJo LLC, Ashland, Oreg., United States of America).
(§2) Tumor cell line expression of integrin αᵥβ₃ was measured by flow cytometry. More particularly, cell surface expression of integrin αᵥβ₃ was evaluated by flow cytometry staining with phycoerythrin-conjugated anti-integrin αᵥβ₃ monoclonal antibody (clone LM609) on diffuse intrinsic pontine glioma (DIPG), neuroblastoma, glioblastoma (GBM), triple-negative breast, bladder, rhabdomyosarcoma (RMS), lung, cervical squamous cell carcinoma, and melanoma tumor cell lines. […]

[2] = biological target: T1, integrin alphav beta3 (αvβ3), human, on …; experiment: flow cytometry, PE-LM609 on SU-DIPG-IV cells
Description: as §1, §2

[3] = biological target: T1, integrin alphav beta3 (αvβ3), human, on …; experiment: flow cytometry, PE-LM609 on SU-DIPG-17 cells
Description: as §1, §2

[4] = biological target: T1, integrin alphav beta3 (αvβ3), human, on …; experiment: flow cytometry, PE-LM609 on SU-DIPG-XIII cells
Description: as §1, §2

[5] = biological target: T1, integrin alphav beta3 (αvβ3), human, on …; experiment: flow cytometry, PE-LM609 on SU-DIPG-21 cells
Description: as §1, §2

[6] = biological target: T1, integrin alphav beta3 (αvβ3), human, on …; experiment: flow cytometry, PE-LM609 on SU-DIPG-36 cells
Description: as §1, §2

[7] = biological target: T1, integrin alphav beta3 (αvβ3), human, on …; experiment: flow cytometry, PE-LM609 on SU-DIPG-27 cells
Description: as §1, §2

[8] = biological target: T1, integrin alphav beta3 (αvβ3), human, on …; experiment: flow cytometry, PE-LM609 on GBM U251 cells
Description: as §1, §2

T1 sequence (P06756 31-1048, chain 1 of 2): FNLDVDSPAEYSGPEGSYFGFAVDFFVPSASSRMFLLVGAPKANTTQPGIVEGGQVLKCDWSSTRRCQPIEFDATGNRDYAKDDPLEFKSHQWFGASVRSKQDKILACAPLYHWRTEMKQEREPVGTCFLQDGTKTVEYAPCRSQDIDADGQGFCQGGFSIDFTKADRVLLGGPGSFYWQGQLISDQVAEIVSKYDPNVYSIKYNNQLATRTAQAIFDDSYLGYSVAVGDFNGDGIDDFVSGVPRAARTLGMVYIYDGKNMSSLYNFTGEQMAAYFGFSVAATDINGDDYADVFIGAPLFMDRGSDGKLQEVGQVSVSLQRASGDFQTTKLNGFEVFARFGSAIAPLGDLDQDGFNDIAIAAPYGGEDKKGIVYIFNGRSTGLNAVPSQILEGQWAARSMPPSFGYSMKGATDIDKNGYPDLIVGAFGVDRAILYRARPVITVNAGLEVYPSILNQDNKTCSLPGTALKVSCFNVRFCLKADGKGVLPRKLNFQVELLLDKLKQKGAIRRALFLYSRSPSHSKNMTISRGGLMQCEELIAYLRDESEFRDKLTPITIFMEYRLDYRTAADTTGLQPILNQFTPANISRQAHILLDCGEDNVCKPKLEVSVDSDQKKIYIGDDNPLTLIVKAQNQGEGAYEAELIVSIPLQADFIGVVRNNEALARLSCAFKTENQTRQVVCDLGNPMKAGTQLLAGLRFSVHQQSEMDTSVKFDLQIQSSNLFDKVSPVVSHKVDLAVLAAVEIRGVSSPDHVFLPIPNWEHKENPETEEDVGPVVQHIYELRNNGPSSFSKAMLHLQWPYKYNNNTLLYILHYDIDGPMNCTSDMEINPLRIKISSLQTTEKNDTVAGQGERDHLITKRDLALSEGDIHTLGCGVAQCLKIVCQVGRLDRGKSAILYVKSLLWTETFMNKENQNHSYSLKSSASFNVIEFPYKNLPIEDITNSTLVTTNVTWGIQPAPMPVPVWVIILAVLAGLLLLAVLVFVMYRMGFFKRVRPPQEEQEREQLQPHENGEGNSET
T1 sequence (P05106 27-788, chain 2 of 2): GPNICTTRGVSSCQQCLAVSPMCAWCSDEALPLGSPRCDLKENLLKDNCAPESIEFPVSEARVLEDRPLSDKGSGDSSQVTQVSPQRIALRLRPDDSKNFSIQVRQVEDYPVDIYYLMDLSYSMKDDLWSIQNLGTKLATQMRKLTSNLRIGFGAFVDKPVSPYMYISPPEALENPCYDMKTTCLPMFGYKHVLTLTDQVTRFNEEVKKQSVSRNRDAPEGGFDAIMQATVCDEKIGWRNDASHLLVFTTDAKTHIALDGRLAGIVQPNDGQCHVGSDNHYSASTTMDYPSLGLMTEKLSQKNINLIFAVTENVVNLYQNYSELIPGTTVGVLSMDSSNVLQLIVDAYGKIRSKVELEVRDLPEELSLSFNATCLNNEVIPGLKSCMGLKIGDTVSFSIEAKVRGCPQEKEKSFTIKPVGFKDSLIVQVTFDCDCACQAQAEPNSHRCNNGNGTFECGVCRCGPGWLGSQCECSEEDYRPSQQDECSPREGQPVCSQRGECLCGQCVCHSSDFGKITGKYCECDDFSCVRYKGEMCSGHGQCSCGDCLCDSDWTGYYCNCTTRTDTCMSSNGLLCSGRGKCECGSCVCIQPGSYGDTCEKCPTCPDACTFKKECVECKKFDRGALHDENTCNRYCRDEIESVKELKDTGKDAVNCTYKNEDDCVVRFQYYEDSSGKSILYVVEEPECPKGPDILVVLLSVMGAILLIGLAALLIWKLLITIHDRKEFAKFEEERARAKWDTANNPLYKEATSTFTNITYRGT

B1: phycoerythrin-conjugated anti-integrin αvβ3 monoclonal antibody (clone LM609) (antibody, V domains shown)
VH: EVQLEESGGGLVKPGGSLKLSCAASGFAFSSYDMSWVRQIPEKRLEWVAKVSSGGGSTYYLDTVQGRFTISRDNAKNTLYLQMSSLNSEDTAMYYCARHNYGSFAYWGQGTLVTVSA
VL: ELVMTQTPATLSVTPGDSVSLSCRASQSISNHLHWYQQKSHESPRLLIKYASQSISGIPSRFSGSGSGTDFTLSINSVETEDFGMYFCQQSNSWPHTFGGGTKLEIK
notes: Bought reagent (Millipore Sigma), conjugated to phycoerythrin; also called PE-conjugated anti-integrin αvβ3 antibody (LM609; Millipore Sigma)
B1 was tested, and the “MFI ratio (MFI/MFI isotype control)” value [1] was 17, the “MFI ratio (MFI/MFI isotype control)” value [2] was 8 and the “MFI ratio (MFI/MFI isotype control)” value [3] was 5. The “MFI ratio (MFI/MFI isotype control)” value [4] was 5, the “MFI ratio (MFI/MFI isotype control)” value [5] was 6 and the “MFI ratio (MFI/MFI isotype control)” value [6] was 16. For the same binder, the “MFI ratio (MFI/MFI isotype control)” value [7] was 4 and the “MFI ratio (MFI/MFI isotype control)” value [8] was 2.
